# Data taken from patent publication US11623951B2, “Antibodies to R-spondin 3” (National Health Research Institutes, priority 2017, dated 2023).
# Values joined by “and” are separate entries in the source; they are usually repeats but may differ in a detail not shown here. Equal entries are not always repeated.
# T1: RSPO3 (Homo sapiens, UniProt Q9BXY4)
# T1 sequence (Q9BXY4 22-272): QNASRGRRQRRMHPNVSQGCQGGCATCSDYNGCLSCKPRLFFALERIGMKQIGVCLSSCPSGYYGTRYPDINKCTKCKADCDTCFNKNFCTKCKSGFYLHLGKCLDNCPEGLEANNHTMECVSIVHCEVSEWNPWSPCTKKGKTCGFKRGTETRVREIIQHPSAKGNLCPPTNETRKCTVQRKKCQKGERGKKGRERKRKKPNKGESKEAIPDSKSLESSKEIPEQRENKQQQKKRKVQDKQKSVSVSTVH
# B1: A4: murine anti-RSPO3 mAb, IgG1; VH SEQ ID NO: 2, VL SEQ ID NO: 4 (antibody, V domains shown)
# VH: QVQLQESGAELAKPGASVKMSCKASGHTLTYYWMHWVKQRPGQGLEWIGYIDPSTGYSEYNQRFEGKATLTADKSSGTVYMQLSSLTSEDSAVYYCARNGPFAYWGQGTLVTVSA
# VL: DNVLTQSPAIMSASPGEKVTMTCSASSSVNYMYWYQQKPGSSPRLLIYDTSKLASGVPVRFSGSGSGTSYSLTISRMEAEDAATYYCQQWSSSPLTFGVGAKLEIKR
# modifications: heavy chain variable region; Light chain variable region
# B2: A6: murine anti-RSPO3 mAb, IgG2a; VH SEQ ID NO: 6, VL SEQ ID NO: 8 (antibody, V domains shown)
# VH: QVQLQQSGAEIVRSGASVKLSCTASGFSITEYYIHWVKQRPDQGLEWIGMIDPENGDTDYAPKFQGKATMTADTSSNTVNLQLSSLTSEDTAVYYCHGPGPLEYWGQGTTLTVSS
# VL: DIVMTQSPLSLPVSLGDQASISCRSSQSIVHSNGNTYLEWYLQKPGQSPNLLIYRVSNRFSGVPDRFNGSGSGTDFTLKISRVEPEDLGVYSCFQASHVPYTFGGGTKLEIKR
# modifications: Heavy chain variable region; Light chain variable region
# B3: B1: murine anti-RSPO3 mAb, IgG1; VH SEQ ID NO: 10, VL SEQ ID NO: 12 (antibody, V domains shown)
# VH: QIQLQESGPGLVKPSQSLSLTCSVTGYSITSGYYWNWIRQFPGNKLEWMGYISYDGTNNYNPSLKDRISITRDTSMNQFFLKLNSVTTEDTATYYCSVLLIQYFNIWGAGTTVTVSS
# VL: DIQMTQSPASLSASVGETVTITCRTSESVNNFLAWFHQKQGKSPQLLVYHAKTLADGVSSRFSGSGSGTQYSLKINSLQPEDFGNYYCQHFWSIPWTFGGGTKLEIKR
# modifications: Heavy chain variable region; Light chain variable region
# Key:
# [1] = system: human SNU-1411 colon xenograft tumor; assay: SNU-1411 colon xenograft tumor carrying PTPRK(e13)-RSPO3(e2) fusion transcript; assay type: in vivo, mice
# Method: FIG. 15 is a set of graphs showing anti-tumor efficacy of in human SNU-1411 colon xenograft tumor carrying PTPRK(e13)-RSPO3(e2) fusion transcript. Tumor cells were injected into the mice and treatments were initiated when the tumors reaches 200 mm^3. Antibodies were given at 25 mg/kg once every other week (Q2W) and paclitaxel at 20 mg/kg once every week (Q1W). Both antibodies and […] were administered by intravenous injection. Paclitaxel was given from day 1 to day 32 and combination groups from day 1 to day 46. Both antibodies and paclitaxel were administered by intravenous injection. For each treatment cycle, antibodies were given on day 1 and paclitaxel on day 3. Tumor and body weight measurements were taken on the indicated days. Mean±SEM. *: p<0.05 vs. control mAb by one-way ANOVA followed by Tukey's post-test comparison.
# To determine the effect of antibodies on SNU-1411 xenograft tumor, tumor-bearing animals were randomized and treatment began when mean tumor volumes reached approximately 150-200 mm^3. Antibodies were given once every other week (Q2W) and paclitaxel was administered once a week (Q1W). Both antibody and paclitaxel were administered intravenously. Tumor growth was measured twice a week by an electronic caliper. Tumor volumes were calculated with the formula (L×W^2)/2, where L was the longest and W was the shortest axis of the tumor. Animal weights were recorded once a week. Mice were examined frequently for overt signs of any adverse drug-related side effects. At the end of the study, all the mice were euthanized.
# RSPO1, 2, 3, and 4 = assay: Antigen-binding ELISA, selectivity among RSPO1-4
# Excerpt: FIG. 3 is a set of graphs showing Anti-RSPO3 hybridoma antibodies reactivity measured by ELISA. These hybridoma antibodies were reacted with RSPO1-4 antigen immunoblots, which reflect with the RSPO3 antigen. (A) A1, A2, A4, A5, A6, and A9 clones; and (B) B1, B3, B4, B8, and B9 clones.
# To assess the RSPO-binding capability of antibodies, purified antibodies were reacted with RSPO1, 2, 3, and 4 on immunoblots. To perform antigen-binding ELISA assay, 96-well high binding polystyrene plates (Corning) were coated with 2 μg/ml of recombinant RSPO3 preparation in the capture buffer by overnight incubation at 4° C. Coated plates were washed twice with PBS supplemented with 0.05% Tween 20 (PBST). The plates were blocked with PBST—10% BSA and assayed with ELISA standard protocol for 1 h at room temperature.
# [2] = system: RSPO3-Wnt signaling (hRSPO3), MDA-MB436 TCF/LEF-Luc cells; assay: TCF/LEF-Luc WNT reporter assay in MDA-MB436 cells stimulated by Wnt3a plus human RSPO3; assay type: cell-based; details: MDA-MB436 reporter cell line
# Method: FIG. 4 is a set of graphs showing RSPO3 Abs targeting the canonical Wnt signaling and in vitro testing for inhibition of β-catenin activity. (A) A1, A2, A4, A5, A6, and A9 clones; (B) B1, B3, B4, B8, and B9 clones; and (C) Dose-response effect of elevated A4 and A6 clones on RSPO-Wnt signaling. MDA-MB436 TCF/LEF-Luc cells were incubated with a combination of Wnt3a (20 ng/mL) and RSPO3 (50 ng/mL) in the presence of 20 μg/mL anti-RSPO3 antibodies clone A1, A2, A4, A5, A6, A9 or 131R002. As controls, cells were incubated with a combination of Wnt3a and RSPO3, Wnt3a only, RSPO3 only, or with no addition. The cells were incubated for 16 hours and the luciferase activity assay was performed using One-Glo Luciferase Assay System.
# FIG. 6 is a set of graph showing that anti-RSPO3 Ab inhibits WNT reporter activity stimulated by combination of Wnt3a and RSPO3. […] The cells were incubated for 16 hours. The luciferase activity assay was performed using One-Glo Luciferase Assay System.
# Wnt signaling leads to β-catenin/TCF dependent transcriptional responses. MDA-MB436-TCF/LEF-Luc cells, a gift from Dr. Kelvin Kun-Chih Tsai, were employed to monitor the activity of Wnt signal transduction pathways. See, e.g., Wang et al. (2013). Gastroenterology (145): 1110-1120. In brief, MDA-MB436-TCF/LEF-Luc cells were seeded in black flat bottom 96 well culture plates (Costar) in RSPO Medium supplemented with 10% FBS and incubated overnight at 37° C., 5% CO2. 24 hours after incubation, cells were treated with anti-RSPO3 ab, 20 ng/ml WNT3a (R&D system) and RSPO ligands (Peprotech Systems) where appropriate and further incubated for 16 hours. Luciferase activity was measured using Bright-Glo Luciferase Assay System (Promega).
# [3] = system: hRSPO3 overlapping linear peptides; assay: PepSet ELISA epitope mapping with linear 10-mer peptides of RSPO3; assay type: binding, human; details: antibody 10 μg/ml
# Excerpt: FIG. 8 is a set of graphs showing mapping of the α-RSPO3 Ab epitopes on RSPO3 protein by Pep-set. These histograms represent the ability of each 10-mer oligopeptide to bind the RSPO3 Abs 131R010(A), 131R002 (B), and hybridoma A6 (C) as indicated in the figure. QNASRGRRQR (SEQ ID NO: 74); ASRGRRQRRM (SEQ ID NO: 75); RGRRQRRMHP (SEQ ID NO: 84); RRQRRMHPNV (SEQ ID NO: 76); CLSCKPRLFF (SEQ ID NO: 77); SCKPRLFFAL (SEQ ID NO: 78); ERGKKGRERK (SEQ ID NO: 79); GKKGRERKRK (SEQ ID NO: 80); KGRERKRKKP (SEQ ID NO: 81); RERKRKKPNK (SEQ ID NO: 82); RENKQQQKKR (SEQ ID NO: 83).
# ELISA for PepSet library was employed to determine α-RSPO3 hB1 antibodies and RSPO3 binding epitope. […] The colorimetric reaction were then stop by 2N HCL and the optical density at 450 nm of each well were determined immediately.
# To identify the binding epitopes of α-RSPO3 Abs, an overlapping peptide library (10-mer for each peptide, offset: 2 amino acid residues, total number of peptides to cover the mature hRSPO3:122) derived from hRSPO3 amino sequences was prepared by Mimotope, Inc. The binding of α-RSPO3 mAbs to the overlapping peptides derived from hRSPO3 was measured. […] According to the epitope mapping results using linear peptides (FIG. 8 and Table 6), it was concluded that hB1 likely binds to a conformationlly-determined epitope on huRSPO3.
# RSPO3 = target: T1, RSPO3; assay: Octet (ForteBio) kinetic binding to biotinylated RSPO3; details: 30° C.
# Method: The streptavidin-coated sensors were coated with 10 μg/ml of biotinylated RSPO3 as described in the handbook of ForteBio. Antibody concentrations were in the range of 0.75 and 93.8 nM. Quantitative kinetic binding analysis was performed with pH-adjusted PBS with 0.5% BSA. All steps were run at 30° C. with a continuous shaking speed at 1000 rpm.
# To assess the RSPO3-binding affinities of the antibodies, kinetics assays were performed by the Octetsystems. The purified monoclonal antibodies (mAbs) from batch-A clones (A1, A4, A6, A9), along with the reference Ab-131R002, were examined for binding with RSPO-3.
Molecule,"Tumor volume on day 32 ([1]; antibodies 25 mg/kg Q2W, paclitaxel 20 mg/kg Q1W, i.v.)","Tumor volume on day 18 ([1]; antibodies 25 mg/kg Q2W, paclitaxel 20 mg/kg Q1W, i.v., mean±SEM)","Tumor volume on day 32 ([1]; antibodies 25 mg/kg Q2W, paclitaxel 20 mg/kg Q1W, i.v., listed as paclitaxel)","Tumor volume reduction, % of Control mAb ([1]; day 18)","selectivity in binding among RSPO1-4 in ELISA (RSPO1, 2, 3, and 4)",dose-dependent inhibitory effect in TCF/LEF-Luc reporter [2],Signal (binding to linear RSPO3 peptides) [3],RMax (RSPO3),kdis (RSPO3),kon (RSPO3)
"CC(=O)O[C@H]1C(=O)[C@@]2(C)[C@H]([C@H](OC(=O)c3ccccc3)[C@]3(O)C[C@H](OC(=O)[C@H](O)[C@@H](NC(=O)c4ccccc4)c4ccccc4)C(C)=C1C3(C)C)[C@]1(OC(C)=O)CO[C@@H]1C[C@@H]2O [Paclitaxel, reference compound]",949 ± 105 mm^3,329 ± 59 mm^3,950 mm^3,69% and 69 ± 6* %,,,,,,
B1,,,,,only reacted with RSPO3,significantly inhibitory effect in a dose-dependent manner,neither the A4 nor the hB1 mAbs showed detectable binding signals,0.3588,0.000884 s⁻¹,32700 M⁻¹ s⁻¹
B2,,,,,only reacted with RSPO3,significantly inhibitory effect in a dose-dependent manner,,0.2151,0.0025 s⁻¹,241000 M⁻¹ s⁻¹
B3,,,,,only reacted with RSPO3,significantly inhibitory effect in a dose-dependent manner,,,,
